Patent US20230302100A1 (published 2023)

Experiments:
denosumab (XGEVA) = assay: cell-based or functional assay
[1] = molecular target: rabbit anti-BSA (ACRIS, #R1048P); assay: cell-based or functional assay

Binder	IgG2 (denosumab) cleavage, SDS-PAGE titration: fold efficacy over IdeZ (denosumab (XGEVA))	pCART124 ratio (fold change in potency relative to IdeS), ELISA-based potency assay [1]
pCART203 (enzyme) MDDYQRNATEAYAKEVPHQITSVWTKGVTPPEQFTQGEDVIHAPYLAHQGWYDITKAFDGKDNLLCGAATAGNMLHWWFDQNKTEIEAYLSKHPEKQKIIFNNQELFDLKAAIDTKDSQTNSQLFNYFRDKAFPNLSARQLGVMPDLVLDMFINGYYLNVFKTQSTDVNRPYQDKDKRGGIFDAVFTRGDQTTLLTARHDLKNKGLNDISTIIKQELTEGRALALSHTYANVSISHVINLWGADFNAEGNLEAIYVTDSDANASIGMKKYFVGINAHGHVAISAKKIEGENIGAQVLGLFTLSSGKDIWQKLSGGGHHHHHH	~3 fold vs pCART144	~3.5 fold over IdeS
pCART201 (enzyme) MSVWTKGVTPLTPEQFRYNNEDVIHAPYLAHQGWYDITKAFDGKDNLLCGAATAGNMLHWWFDQNKTEIEAYLSKHPEKQKIIFNNQELFDLKAAIDTKDSQTNSQLFNYFRDKAFPNLSARQLGVMPDLVLDMFINGYYLNVFKTQSTDVNRPYQDKDKRGGIFDAVFTRGDQTTLLTARHDLKNKGLNDISTIIKQELTEGRALALSHTYANVSISHVINLWGADFNAEGNLEAIYVTDSDANASIGMKKYFVGINAHGHVAISAKKIEGENIGAQVLGLFTLSSGKDIWQKLSGGGHHHHHH	–	8 fold over pCART124
pCART197 (enzyme) MDDYQRNATEAYAKEVPHQITSVWTKGVTPLTPEQFRYNNEDVIHAPYLANQGWYDITKAFDGKDNLLCGAATAGNMLHWWFDQNKTEIEAYLSKHPEKQKIIFRNQELFDLKEAIRTKDSQTNSQLFEYFRDKAFPYLSARQLGVMPDLVLDMFINGYYLNVFKTQSTDVKRPYQDKDKRGGIFDAVFTRGNQTTLLTARHDLKNKGLNDISTIIKEELTKGRALALSHTYANVSISHVINLWGADFNAEGNLEAIYVTDSDANASIGMKKYFVGINKHGHVAISAKKIEGENIGAQVLGLFTLSSGKDIWQKLNGGGHHHHHH	–	8 fold over pCART124
